From paper PMC5349785 (Molecular Biology of the Cell, 2017) come the findings set out here.

Assay [1] deals with T1, Vps35 with C-terminal TAP tag (S. cerevisiae, UniProt P34110 1-944).
T1 sequence: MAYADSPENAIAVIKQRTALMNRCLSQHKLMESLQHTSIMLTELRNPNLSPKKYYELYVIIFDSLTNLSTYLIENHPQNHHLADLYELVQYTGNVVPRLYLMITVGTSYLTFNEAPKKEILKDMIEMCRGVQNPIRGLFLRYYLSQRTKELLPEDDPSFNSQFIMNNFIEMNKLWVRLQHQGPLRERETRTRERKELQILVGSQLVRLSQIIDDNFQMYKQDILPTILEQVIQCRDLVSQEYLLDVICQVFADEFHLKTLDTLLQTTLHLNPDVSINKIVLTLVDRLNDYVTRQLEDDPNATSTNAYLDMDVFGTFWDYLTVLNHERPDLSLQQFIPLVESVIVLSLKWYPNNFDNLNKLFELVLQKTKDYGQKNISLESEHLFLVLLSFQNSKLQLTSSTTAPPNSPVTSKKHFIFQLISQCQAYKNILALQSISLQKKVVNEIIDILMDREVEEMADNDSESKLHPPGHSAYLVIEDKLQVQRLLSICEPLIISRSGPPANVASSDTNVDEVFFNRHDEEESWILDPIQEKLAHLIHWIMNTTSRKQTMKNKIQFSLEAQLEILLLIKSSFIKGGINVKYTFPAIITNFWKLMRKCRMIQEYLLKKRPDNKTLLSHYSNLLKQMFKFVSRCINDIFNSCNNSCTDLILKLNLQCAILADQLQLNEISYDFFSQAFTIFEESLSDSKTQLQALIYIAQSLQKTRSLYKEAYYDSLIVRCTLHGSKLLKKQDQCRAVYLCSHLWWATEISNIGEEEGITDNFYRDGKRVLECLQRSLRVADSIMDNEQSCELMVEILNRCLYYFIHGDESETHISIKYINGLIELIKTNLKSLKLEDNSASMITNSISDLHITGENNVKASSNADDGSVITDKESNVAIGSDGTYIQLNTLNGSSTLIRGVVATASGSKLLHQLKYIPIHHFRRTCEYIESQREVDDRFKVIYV
Kind of assay: tandem affinity purification.

Assay [2] addresses T2, CSC with GFP-tagged Vps29 (CSC-GFP) (S. cerevisiae, UniProt P34110;P40335;P38759). Briefly: pull-down.
The target in assay [3] is T2, CSC with GFP-tagged Vps29 (CSC-GFP). Kind of assay: recruitment to giant unilamellar vesicles.

B1: Vps29 (natural protein)
chain: MLLLALSDAHIPDRATDLPVKFKKLLSVPDKISQVALLGNSTKSYDFLKFVNQISNNITIVRGEFDNGHLPSTKKDKASDNSRPMEEIPMNSIIRQGALKIGCCSGYTVVPKNDPLSLLALARQLDVDILLWGGTHNVEAYTLEGKFFVNPGSCTGAFNTDWPIVFDVEDSDEAVTSEVDKPTKENQSEDDDAKGGSTGKEQPGSYTPKEGTAGERENENESNVKPENQFKEDEVDMSDSDINGSNSPSFCLLDIQGNTCTLYIYLYVNGEVKVDKVVYEKE
As to B1, the binding result in assay [1] was “binds”.

B2: N-terminal fragment of Vps5 (residues 1-280) (domain or fragment)
chain: MDYEDNLEAPVWDELNHEGDKTQSLVSNSIESIGQISTNEERKDNELLETTASFADKIDLDSAPEWKDPGLSVAGNPQLEEHDNSKADDLINSLAPEQDPIADLKNSTTQFIATRESGGALFTGNANSPLVFDDTIYDANTSPNTSKSISGRRSGKPRILFDSARAQRNSKRNHSLKAKRTTASDDTIKTPFTDPLKKAEKENEFVEEPLDDRNERRENNEGKFTASVEKNILEQVDRPLYNLPQTGANISSPAEVEENSEKFGKTKIGSKVPPTEKAVA
As to B2, in assay [2], the binding result was “binds”.

B3: cytosolic domain of Vps10 (residues 1415-1579), His-tagged (domain or fragment)
chain: YDRGIRRNGGFARFGEIRLGDDGLIENNNTDRVVNNIVKSGFYVFSNIGSLLQHTKTNIAHAISKIRGRFGNRTGPSYSSLIHDQFLDEADDLLAGHDEDANDLSSFMDQGSNFEIEEDDVPTLEEEHTSYTDQPTTTDVPDTLPEGNEENIDRPDSTAPSNENQ
modifications: Cy5 label (Cyc-5 amine derivative) in Figures 3 and 4
With B3, the binding result in assay [3] is reported as “binds”.

B4: fluorescently labeled Ypt7 without His tag (natural protein)
chain: MSSRKKNILKVIILGDSGVGKTSLMHRYVNDKYSQQYKATIGADFLTKEVTVDGDKVATMQVWDTAGQERFQSLGVAFYRGADCCVLVYDVTNASSFENIKSWRDEFLVHANVNSPETFPFVILGNKIDAEESKKIVSEKSAQELAKSLGDIPLFLTSAKNAINVDTAFEEIARSALQQNQADTEAFEDDYNDAINIRLDGENNSCSC
modifications: fluorescent label: ATTO (legend of Figure 5); DY-647 maleimide derivative (methods)
Regarding B4, in assay [3], the binding result is listed as “binds”.

B5: SNX-BAR complex with GFP-tagged Vps17 (SNX-BAR-GFP) (complex)
chain 1: MDYEDNLEAPVWDELNHEGDKTQSLVSNSIESIGQISTNEERKDNELLETTASFADKIDLDSAPEWKDPGLSVAGNPQLEEHDNSKADDLINSLAPEQDPIADLKNSTTQFIATRESGGALFTGNANSPLVFDDTIYDANTSPNTSKSISGRRSGKPRILFDSARAQRNSKRNHSLKAKRTTASDDTIKTPFTDPLKKAEKENEFVEEPLDDRNERRENNEGKFTASVEKNILEQVDRPLYNLPQTGANISSPAEVEENSEKFGKTKIGSKVPPTEKAVAFKVEVKDPVKVGELTSIHVEYTVISESSLLELKYAQVSRRYRDFRWLYRQLQNNHWGKVIPPPPEKQSVGSFKENFIENRRFQMESMLKKICQDPVLQKDKDFLLFLTSDDFSSESKKRAFLTGSGAINDSNDLSEVRISEIQLLGAEDAAEVLKNGGIDAESHKGFMSISFSSLPKYNEADEFFIEKKQKIDELEDNLKKLSKSLEMVDTSRNTLAASTEEFSSMVETLASLNVSEPNSELLNNFADVHKSIKSSLERSSLQETLTMGVMLDDYIRSLASVKAIFNQRSKLGYFLVVIENDMNKKHSQLGKLGQNIHSEKFREMRKEFQTLERRYNLTKKQWQAVGDKIKDEFQGFSTDKIREFRNGMEISLEAAIESQKECIELWETFYQTNL
chain 2: MTSAVPYDPYDDLDNNPFAEPQEEDSEPAATTTDGSSSMSEERVGTEQTAASVQDNGTANNIQNGLGEEGNATRSKTSNEHNENQQPSQPSERVILPERSDEKKKYTLLAKVTGLERFGSATGKKENPTIIFDCSTNLPTFRKQQYKNVKKSYEEFHQLFKYLNVAIQESFVPTLPSAYTTFGINSEEDRMKVTRNFQLWFNRLSQDPLIIRNEEVAFFIESDFNTYTPINKSKSLASGLKRKTLKQLAPPYDEITELAEFRPLVKSIYVVSQSLQEKLLRVSRNRKMMVQEENAFGQDFVNLDEHNKLYRRYGKILTAVGDIDSIIATMDMATLYDGLEWIVRDAYAVKEALTNRHFIMRNLVQAQQNSKAKQEQARRFRSRRDINPMKIDEALRQLKAAAKNEQVLTLKLQRITSNMIIERKQWISWYEEWIRSSIKEFTLRKIEYERKKLTLLERVRSDIRKADENGGLSRLGRHAVSNNNSDTSQTLKGDSWTGESNRKSQIPINKIAHTEFDDELFTEDDGYNSQDSDTTSLNARHAASLLGMSTK
In the case of B5, the binding result in assay [2] is reported as “binds”.

B6: SNX-BAR complex (Vps5-Vps17 heterodimer) (complex)
chain 1: B5 chain 1
chain 2: B5 chain 2
Regarding B6, the binding result in assay [3] is reported as “binds”.

B7: Vps26 (natural protein)
chain: MSIFFKPPIDIEILFDNEESRKHVDIATRSSNSSYKSMKESLPVYEDGESLGGIVTLRVRDSKKVDHLGIKVSVIGSIDMLKSHGSGNSSSKKVTSSTSSSSSNGSVDVRKNSVDQFLCQSYDLCPAGELQHSQSFPFLFRDLSKRYESYKGKNVDVAYYVKVTVMRKSTDISKIKRFWVYLYNSVTTAPNTLSANETKATTNDIAGGNYAADNASDNTQTKSTQGEAADVNQVLPISHSNNEPKPVRLDIGIENCLHIEFEYAKSQYSLKEVIVGRIYFLLTRLRIKHMELSLITRESSGLQTSNVMTDSTAIRYEIMDGSSVKGETIPIRLFLSGYDLTPNMSCNYFNVKNYLSLVIIDEDGRRYFKQSEITLYRTR
Turning to B7, the binding result in assay [1] is given as “binds”.
